Assay results reported in patent publication US20150265679A1, “METHOD OF REDUCING ADVERSE EFFECTS IN A CANCER PATIENT UNDREGOING TREATMENT WITH A MEK INHIBITOR” (THE UNITED STATES OF AMERICA, as represented by THE …, priority 2013, published 2015).

Experiments:
[1] = system: animal model of retinal-reattachment; conditions: topical addition, cited from earlier work
[2] = system: hfRPE monolayers; assay: Transepithelial fluid transport (JV) across hfRPE monolayers, capacitance probe technique; type: cell-based, human; conditions: for normal fluid absorption after MEK inhibitor: IFN-γ (15 ng/ml, FIG. 10B) to basal bath after 72 hours 10 μM plus acute 100 μM MEK inhibitor; for rescue of apical MEK inhibitor-induced reduction in fluid absorption: basolateral IFN-γ (10 ng/ml, FIGS. 11A, 11B) after acute apical MEK inhibitor
Text: Confluent monolayers of hfRPE cultured on transwells were mounted in an electrophysiological chamber and transepithelial water flow (JV) measurements were made with a capacitance probe technique as described previously in Maminishkis 2006; Shi, G., et al., Invest Ophthalmol Vis Sci, 2008, 49, 4620-4630; Edelman, J. L., et al., Invest Ophthalmol Vis Sci, 1991, 32, 3033-3040; Jiang, C., et al., Science, 1993, 262, 424-427; and Maminishkis, A., et al., Invest Ophthalmol Vis Sci, 2002, 43, 3555-3566, each incorporated herein by reference in its entirety. In brief, the RPE is mounted in a water-jacketed ? ssing chamber and oriented vertically with the apical and basolateral membranes separately exposed to Ringer's solution held in bathing reservoirs. Stainless steel probes (Accumeasure System 1000; MT Instruments, Latham, N.Y.) are lowered into the apical and basolateral bathing wells to measure the capacitance of the air gap between the probe and fluid meniscus. Fluid transport rate JV (μl·cm^−2·hr^−1) is determined by monitoring the fluid movement-induced changes in the air gap capacitance at the apical and basolateral baths. The probes on both sides of the tissue are backed off from the surface of the Ringer's solution during a bathing solution change.
The capacitance probes are moved away from the bathing reservoirs and fresh control Ringer's solution perfused into the chamber. The fluid transport apparatus also allows continuous monitoring of TEP and RT, but for technical reasons (e.g., solution perfusion rates, TEP/RT sampling rates, and electrode stability) the initial changes in TEP and RT can only be compared to those seen in the electrophysiology experiments. Experiments are continued only if JV, TEP, and RT are not appreciably altered by this control-to-control Ringer's solution change. The water jacketed ? ssing chamber is placed in an incubator to maintain steady-state control over temperature, pCO2, and humidity.
Tissue viability was ascertained by recording transepithelial potential (TEP) and total tissue resistance (RT). It should be noted that the solution composition changes in this chamber were relatively slow (≈1-2 chamber volumes per minute) and the data sampling rate was once per minute, more than two orders of magnitude slower than the sampling rate in the electrophysiology chamber (see below). Therefore it was not possible to record fast changes, in seconds or minutes, in JV, TEP, or RT. After addition of IFNγ to the apical or basal baths, steady-state JV, TEP, and RT were recorded for 20-30 minutes. In control experiments, successive additions of IFNγ were made to test for the repeatability and reversibility of responses.
Effects of MEK inhibitor on human fetal retinal pigment epithelium (hfRPE) were measured following acute and chronic addition of inhibitor. Experiments were performed using hfRPE monolayers grown on semipermeable inserts with media access to apical and basal sides of the epithelium. In different sets of experiments, MEK inhibitor was added to apical, basal, or both sides of hfRPE mounted in modified ? ssing chambers. In chronic experiments hfRPE were pre-treated with 10 μM MEK inhibitor added to apical and basal baths for 24, 48, or 72 hours. For chronic experiments lasting more than 24 hours, transepithelial resistance (TER) was measured daily. Prior to the transfer of the epithelial monolayer to the ? ssing chamber, the TER of whole insert was compared to the TER measured in the ? ssing chamber. This procedure helps confirm the tissue integrity following the transfer from the cell culture insert to the ? ssing chamber. The TER summary data for chronic experiments contains cumulative recordings of TER obtained from inserts and ? ssing chambers.

[3] = system: patients with central serious chorioretinopathy; assay: Topical IFN gamma in patients with central serious chorioretinopathy (ongoing trial); type: in vivo, human
Text: Topical IFN gamma was also studied in the treatment of serious retinal detachments in patients with central serious chorioretinopathy. […] This occurred during the second week of a two-week course of therapy.

[4] = system: patients with uveitic cystoid macular edema; assay: Phase I open label trial of topical IFNγ in patients with CME secondary to uveitis; type: in vivo, human
Protocol: A phase I open label clinical trial was conducted aimed at investigating the safety and tolerability of topically applied IFN gamma in patients with uveitic cystoid macular edema. To test whether cystoid macular edema (CME), secondary to uveitis, is caused by the disequilibrium of the JAK/STAT and mTor signal transduction pathways in the retinal pigment epithelium (RPE), IFNγ was topically applied in human patients. Five participants with CME secondary to uveitis received a topical ocular instillation of IFNγ in a Phase I, non-randomized, prospective, uncontrolled, dose-escalation, single-center study. The study involved a one-time instillation or series of instillations of IFNγ on the cornea and measurement of a response with optical coherence tomography (OCT) over a three hour period.
A 25% decrease in macular thickness is observed at a post-instillation as compared to baseline. In the study, the first two participants received one instillation (each instillation contains 10 μg in 0.05 mL solution) on the cornea at time zero, the next two participants received two instillations, 10 minutes apart, for a total dosage of 20 and the final participant received three instillations, 10 minutes apart, for a total of 30 μg. OCT was obtained at −60 minutes, −30 minutes and just before the instillation(s). Repeat OCTs were taken at +30 minutes, +60 minutes and +120 minutes. All participants returned for a one-week safety visit.
The primary outcome was the change in central macular thickness as measured by OCT in response to interferon IFNγ as compared with baseline. Secondary outcomes included changes in macular volume as measured by OCT, visual acuity, intraocular pressure, intraocular inflammation and ocular surface irritation assessed by fluorescein staining of the cornea and conjunctiva to assess toxicity. For safety measurements, the following were measured: the presence of ocular surface irritation assessed by fluorescein staining of the cornea and conjunctiva to assess toxicity; the number and severity of systemic and ocular toxicities and adverse events; and the proportion of participants with a visual loss of ≧15 ETDRS letters.
All participants undergo a dilated ophthalmic examination the day of the testing. One eye is chosen as the study eye. The participants receive the evaluation around 12:00 p.m. Participants then have a OCT at −60 minutes, −30 minutes and just before the ocular instillation. The ocular instillation occurs no earlier than 1:00 p.m. Repeat OCT recordings are taken at +30, +60 and +120 minutes after instillation. There is a window of ±15 minutes for each OCT test.
OCT testing is performed with the Cirrus™ high-definition OCT (Carl Zeiss Meditec, Inc.) scanner using a 512×128 scan pattern where a 6×6-mm area on the retina is scanned with 128 horizontal lines, each consisting of 512 A-scans per line (a total of 65,536 sampled points) within a scan time of 2.4 seconds. The scanner automatically focuses on the macula. Data for macular thickness calculations are collected from an array of A-scans distributed across the macular using the macular thickness analysis algorithm. The three pre-instillation measurements are averaged to calculate the baseline macular thickness measurement. Post-instillation OCT macular thickness calculations (+30, +60 and +120 minutes) is compared to the baseline measurement separately. A 25% reduction in central macular thickness is observed in treated patients.
Interferon γ-1b is administered as follows: • 1. Topical tetracaine 1% or proparacaine 0.5% drops are applied to the study eye surface one to two minutes prior to instillation. • 2. The participant applies punctal pressure to his/her […] eye. • 3. The investigator holds the participant's study eye open. • 4. A volume of 0.05 mL of IFNγ is instilled on the center of the study eye's cornea from a tuberculin syringe. • 5. […]

[5] = system: hfRPE monolayers; conditions: IFN-γ in basal bath, increased from 7; Li et al., 2009; cited from earlier work

B1: IFNγ: interferon-γ or, equivalently, interferon-γ1b (CAS number 82115-62-6), pleiotropic cytokine (protein, UniProt P01579 24-161, looked up)
Interferon gamma: QDPYVKEAENLKKYFNAGHSDVADNGTLFLGILKNWKEESDRKIMQSQIVSFYFKLFKNFKDDQSIQKSVETIKEDMNVKFFNSNKKKRDDFEKLTNYSVTDLNVQRKAIHELIQVMAELSPAAKTGKRKRSQMLFRG
Q: Which subretinal fluid ([1]; monitored by high resolution OCT) does the source give for B1 here?
A: The subretinal fluid was “remove fluid from the subretinal space”.

Q: What about the JAK/STAT pathway [1] of the same molecule?
A: Its JAK/STAT pathway is “activated”.

Q: What about the “normal fluid absorption after MEK inhibitor” value [2] of the same molecule?
A: The value was “rescue of fluid transport”.

Q: And the “normal fluid absorption after MEK inhibitor” value ([2]; listed as IFN-γ)?
A: Its value is “partially restored”.

Q: What about the “restoration of MEK inhibitor-decreased fluid absorption” value ([2]; IFN-γ added to basolateral bath after chronic 10 μM (72 hours) plus acute apical 100 μM MEK inhibitor) of the same molecule?
A: The value was “almost completely restored”.

Q: What about the “increase of JV” value ([2]; IFNγ 5 ng/ml in the basal bath (FIG. 7)) of the same molecule?
A: Its value is ~8.6 μl·cm−2·hr^−1.

Q: What about the “fluid transport across RPE” value ([2]; IFNγ added to the basal side of hfRPE (FIG. 7)) of the same molecule?
A: The value was “significantly increase”.

Q: And the “cell viability as measured by TEP and RT” value ([2]; IFNγ treatment of hfRPE)?
A: The value was “did not affect cell viability”.

Q: What about the “rescue of apical MEK inhibitor-induced reduction in fluid absorption” value [2] of the same molecule?
A: The value was “reverse”.

Q: And the “rescue of apical MEK inhibitor-induced reduction in fluid absorption” value ([2]; listed as IFN-γ)?
A: Its value is “almost completely rescued”.

Q: And the “mean JV after IFNγ” value ([2]; increased from 12.9±1.6, mean±SEM, p<0.01)?
A: Its value is 20.5±3.1 μl·cm−2·hr^−1.

Q: What about the “resolution of redness after cessation of drops” value ([3]; both affected patients, no persistent ocular changes) of the same molecule?
A: Its value is “within one day”.

Q: What about the “clinical outcome in serious retinal detachments” value ([3]; four patients studied so far) of the same molecule?
A: Its value is “some clinical success”.

Q: What about the “painless conjunctival injection with no change in vision” value ([3]; second week of a two-week course of therapy) of the same molecule?
A: Its value is “two of the four patients”.

Q: And the “ocular surface irritation by slit lamp exam” value ([4]; 5 patients)?
A: Its value is “no patient developed evidence of ocular surface irritation”.

Q: What about the serious adverse events ([4]; 5 patients) of the same molecule?
A: The serious adverse events was “no serious adverse events”.

Q: What about the tolerability of drops ([4]; 5 patients, 1-week period) of the same molecule?
A: Its tolerability of drops is “well tolerated”.

Q: What about the “patients reporting irritation or other new ocular complaints” value ([4]; 5 patients, during 1-week period or beyond) of the same molecule?
A: Its value is “none of the 5 patients”.

Q: And the “thickness and volume of macular edema by OCT” value ([4]; most patients)?
A: The value was “slight (albeit clinically insignificant) decrease”.

Q: What about the “decrease in (central) macular thickness by OCT compared to baseline” value ([4]; topical instillation 10-30 μg, post-instillation +30, +60, +120 minutes) of the same molecule?
A: Its value is 25%.

Q: And the “steady state Jv after IFN-γ” value [5]?
A: Its value is 16 μl·cm−2·hr^−1.
